# From paper PMC3338420
# What was measured:
# [1] = target: Rab6a/RPRdel complex (Rab6a with RUN1-PLAT-RUN2 of DENND5A, loop 813–835 deleted) (human | mouse) (UniProt P20340); test: SPR; Biacore X-100, 293 K; Rab6/RPRdel or Rab6/RPdel amine-coupled to a CM5 chip (about 2,500 RU); SNX1 fragments as analytes, 0.2 to 40 µM; 100 mM NaCl, 1 mM DTT, 0.005% P20, 10 mM HEPES pH 8.0; multi-cycle; equilibrium KD from a 1:1 model
# SNX18 (Homo sapiens) = SNX18 (Homo sapiens) (UniProt Q96RF0); conditions: cited from earlier work
# Sequence of UniProt Q96RF0 (Q96RF0 whole entry): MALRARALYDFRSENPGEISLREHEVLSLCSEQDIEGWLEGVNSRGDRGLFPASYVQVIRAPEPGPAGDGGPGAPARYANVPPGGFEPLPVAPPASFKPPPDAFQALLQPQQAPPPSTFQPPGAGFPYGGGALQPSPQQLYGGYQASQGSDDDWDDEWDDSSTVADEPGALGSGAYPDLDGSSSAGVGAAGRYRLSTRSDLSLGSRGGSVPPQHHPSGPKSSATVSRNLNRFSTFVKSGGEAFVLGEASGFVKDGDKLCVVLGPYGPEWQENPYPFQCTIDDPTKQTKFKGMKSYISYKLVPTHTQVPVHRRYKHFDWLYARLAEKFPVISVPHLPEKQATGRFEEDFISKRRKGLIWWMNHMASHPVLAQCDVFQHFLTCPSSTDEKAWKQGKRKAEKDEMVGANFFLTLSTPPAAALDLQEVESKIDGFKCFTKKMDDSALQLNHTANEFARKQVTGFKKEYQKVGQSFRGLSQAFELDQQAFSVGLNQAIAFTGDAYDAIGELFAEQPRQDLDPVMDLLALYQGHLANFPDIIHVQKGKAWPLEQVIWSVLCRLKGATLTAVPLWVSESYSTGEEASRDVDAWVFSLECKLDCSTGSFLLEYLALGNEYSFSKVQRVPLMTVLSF
# Sequence of UniProt P20340 (P20340 8-195 Q72L, chain 1 of 2): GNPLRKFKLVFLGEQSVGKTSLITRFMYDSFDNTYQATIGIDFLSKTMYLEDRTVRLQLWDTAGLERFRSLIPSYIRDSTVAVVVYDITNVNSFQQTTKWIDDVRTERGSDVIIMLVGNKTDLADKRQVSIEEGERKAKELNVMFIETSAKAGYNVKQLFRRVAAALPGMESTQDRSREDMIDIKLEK
# Sequence of UniProt P20340 (Q6PAL8 other isoform, or with tags, fused parts or gaps, chain 2 of 2, further chain): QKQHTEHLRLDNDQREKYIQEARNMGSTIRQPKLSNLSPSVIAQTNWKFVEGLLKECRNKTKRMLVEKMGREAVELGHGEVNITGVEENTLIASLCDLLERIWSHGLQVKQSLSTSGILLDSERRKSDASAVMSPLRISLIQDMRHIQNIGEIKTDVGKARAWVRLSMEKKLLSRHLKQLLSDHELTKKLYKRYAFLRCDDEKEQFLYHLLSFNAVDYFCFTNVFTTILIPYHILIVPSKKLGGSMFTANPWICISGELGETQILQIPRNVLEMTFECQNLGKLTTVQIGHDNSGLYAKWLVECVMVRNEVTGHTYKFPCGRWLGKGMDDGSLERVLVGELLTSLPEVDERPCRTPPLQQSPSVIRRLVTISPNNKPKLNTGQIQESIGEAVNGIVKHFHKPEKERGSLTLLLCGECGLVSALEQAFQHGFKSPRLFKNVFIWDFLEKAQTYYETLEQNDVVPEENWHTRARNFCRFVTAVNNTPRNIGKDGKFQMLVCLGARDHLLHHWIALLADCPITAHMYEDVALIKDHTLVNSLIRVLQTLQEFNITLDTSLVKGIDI
Substance,Kd [1],Kd (SNX18 (Homo sapiens))
SNX1 SNX-PX (9–303) (from UniProt Q9WV80 9-303) (domain or fragment),1.7 µM,
FIP5 (from UniProt Q9BXF6),,1.6 µM
